Source: US20160114000A1 (Merck Sharp & Dohme, published 2016)
*1 amine or outer side, *2 acyl side, *3 side chain or, on linkers, in order; H or OH if unused. Where no end group is shown, it is not given here. Side-chain parts run from the residue outwards. [ ]: non-standard residue; d: D form. The star is where a group is joined. γGlu = O=C(O)[C@H](CCC(=O)[*:2])N[*:1]; Palmitoyl = CCCCCCCCCCCCCCCC(=O)*; Ac4c = NC1(C(=O)O)CCC1

B1: Co-agonist Peptide 8 (peptide)
peptide: H[dS]QGTFTSDK([γGlu-γGlu-Palmitoyl])SKYLEARAAQDFVQWLLDT-NH2
modifications: N-terminus assumed
SMILES: CCCCCCCCCCCCCCCC(=O)N[C@@H](CCC(=O)N[C@@H](CCC(=O)NCCCC[C@H](NC(=O)[C@H](CC(=O)O)NC(=O)[C@H](CO)NC(=O)[C@@H](NC(=O)[C@H](Cc1ccccc1)NC(=O)[C@@H](NC(=O)CNC(=O)[C@H](CCC(N)=O)NC(=O)[C@@H](CO)NC(=O)[C@@H](N)Cc1c[nH]cn1)[C@@H](C)O)[C@@H](C)O)C(=O)N[C@@H](CO)C(=O)N[C@@H](CCCCN)C(=O)N[C@@H](Cc1ccc(O)cc1)C(=O)N[C@@H](CC(C)C)C(=O)N[C@@H](CCC(=O)O)C(=O)N[C@@H](C)C(=O)N[C@@H](CCCNC(=N)N)C(=O)N[C@@H](C)C(=O)N[C@@H](C)C(=O)N[C@@H](CCC(N)=O)C(=O)N[C@@H](CC(=O)O)C(=O)N[C@@H](Cc1ccccc1)C(=O)N[C@H](C(=O)N[C@@H](CCC(N)=O)C(=O)N[C@@H](Cc1c[nH]c2ccccc12)C(=O)N[C@@H](CC(C)C)C(=O)N[C@@H](CC(C)C)C(=O)N[C@@H](CC(=O)O)C(=O)N[C@H](C(N)=O)[C@@H](C)O)C(C)C)C(=O)O)C(=O)O
B2: Co-agonist Peptide 3 (peptide)
peptide: H[dS]QGTFTSDK([γGlu-γGlu-Palmitoyl])SKYLDVRAAQDFVQWLLDT-NH2
modifications: N-terminus assumed
SMILES: CCCCCCCCCCCCCCCC(=O)N[C@@H](CCC(=O)N[C@@H](CCC(=O)NCCCC[C@H](NC(=O)[C@H](CC(=O)O)NC(=O)[C@H](CO)NC(=O)[C@@H](NC(=O)[C@H](Cc1ccccc1)NC(=O)[C@@H](NC(=O)CNC(=O)[C@H](CCC(N)=O)NC(=O)[C@@H](CO)NC(=O)[C@@H](N)Cc1c[nH]cn1)[C@@H](C)O)[C@@H](C)O)C(=O)N[C@@H](CO)C(=O)N[C@@H](CCCCN)C(=O)N[C@@H](Cc1ccc(O)cc1)C(=O)N[C@@H](CC(C)C)C(=O)N[C@@H](CC(=O)O)C(=O)N[C@H](C(=O)N[C@@H](CCCNC(=N)N)C(=O)N[C@@H](C)C(=O)N[C@@H](C)C(=O)N[C@@H](CCC(N)=O)C(=O)N[C@@H](CC(=O)O)C(=O)N[C@@H](Cc1ccccc1)C(=O)N[C@H](C(=O)N[C@@H](CCC(N)=O)C(=O)N[C@@H](Cc1c[nH]c2ccccc12)C(=O)N[C@@H](CC(C)C)C(=O)N[C@@H](CC(C)C)C(=O)N[C@@H](CC(=O)O)C(=O)N[C@H](C(N)=O)[C@@H](C)O)C(C)C)C(C)C)C(=O)O)C(=O)O
B3: Co-agonist Peptide 12 (peptide)
peptide: HXQGTFTSDXSKYLDARAAQDFVQWLLDT
modifications: D-Ser at 2; para-aminomethyl phenylalanine (pAF) at 10 conjugated to γEγE-C16 (palmitoyl); C-terminal amide
B4: Co-agonist Peptide 13 (peptide)
peptide: H[Ac4c]QGTFTSDK([γGlu-γGlu-Palmitoyl])SKYLDERAAQDFVQWLLDT-NH2
modifications: N-terminus assumed
SMILES: CCCCCCCCCCCCCCCC(=O)N[C@@H](CCC(=O)N[C@@H](CCC(=O)NCCCC[C@H](NC(=O)[C@H](CC(=O)O)NC(=O)[C@H](CO)NC(=O)[C@@H](NC(=O)[C@H](Cc1ccccc1)NC(=O)[C@@H](NC(=O)CNC(=O)[C@H](CCC(N)=O)NC(=O)C1(NC(=O)[C@@H](N)Cc2c[nH]cn2)CCC1)[C@@H](C)O)[C@@H](C)O)C(=O)N[C@@H](CO)C(=O)N[C@@H](CCCCN)C(=O)N[C@@H](Cc1ccc(O)cc1)C(=O)N[C@@H](CC(C)C)C(=O)N[C@@H](CC(=O)O)C(=O)N[C@@H](CCC(=O)O)C(=O)N[C@@H](CCCNC(=N)N)C(=O)N[C@@H](C)C(=O)N[C@@H](C)C(=O)N[C@@H](CCC(N)=O)C(=O)N[C@@H](CC(=O)O)C(=O)N[C@@H](Cc1ccccc1)C(=O)N[C@H](C(=O)N[C@@H](CCC(N)=O)C(=O)N[C@@H](Cc1c[nH]c2ccccc12)C(=O)N[C@@H](CC(C)C)C(=O)N[C@@H](CC(C)C)C(=O)N[C@@H](CC(=O)O)C(=O)N[C@H](C(N)=O)[C@@H](C)O)C(C)C)C(=O)O)C(=O)O
B5: Co-agonist Peptide 9 (peptide)
peptide: HXQGTXTSDKSKYLDERAAQDFVQWLLDT
modifications: D-Ser at 2; p-fluorophenylalanine (pFF) at 6; Lys 10 conjugated to γEγE-C16 (palmitoyl); C-terminal amide
B6: Co-agonist Peptide 10 (peptide)
peptide: HXQGTFTSDKSKYLDERAAQDFVQWLXDT
modifications: D-Ser at 2; Lys 10 conjugated to γEγE-C16 (palmitoyl); methionine sulfone at 27; C-terminal amide
B7: Co-agonist Peptide 11 (peptide)
peptide: H[dS]QGTFTSDK([γGlu-γGlu-Palmitoyl])SLYLDERAAQDFVQWLLDT-NH2
modifications: N-terminus assumed
SMILES: CCCCCCCCCCCCCCCC(=O)N[C@@H](CCC(=O)N[C@@H](CCC(=O)NCCCC[C@H](NC(=O)[C@H](CC(=O)O)NC(=O)[C@H](CO)NC(=O)[C@@H](NC(=O)[C@H](Cc1ccccc1)NC(=O)[C@@H](NC(=O)CNC(=O)[C@H](CCC(N)=O)NC(=O)[C@@H](CO)NC(=O)[C@@H](N)Cc1c[nH]cn1)[C@@H](C)O)[C@@H](C)O)C(=O)N[C@@H](CO)C(=O)N[C@@H](CC(C)C)C(=O)N[C@@H](Cc1ccc(O)cc1)C(=O)N[C@@H](CC(C)C)C(=O)N[C@@H](CC(=O)O)C(=O)N[C@@H](CCC(=O)O)C(=O)N[C@@H](CCCNC(=N)N)C(=O)N[C@@H](C)C(=O)N[C@@H](C)C(=O)N[C@@H](CCC(N)=O)C(=O)N[C@@H](CC(=O)O)C(=O)N[C@@H](Cc1ccccc1)C(=O)N[C@H](C(=O)N[C@@H](CCC(N)=O)C(=O)N[C@@H](Cc1c[nH]c2ccccc12)C(=O)N[C@@H](CC(C)C)C(=O)N[C@@H](CC(C)C)C(=O)N[C@@H](CC(=O)O)C(=O)N[C@H](C(N)=O)[C@@H](C)O)C(C)C)C(=O)O)C(=O)O

Experiments:
[1] = test system: diet-induced obese (DIO) mice (strain C57Bl6/NTac); assay: Cumulative body weight change (grams) in DIO mice, Example 18; assay type: in vivo; conditions: 9 nmol/kg daily, day 9
Experimental: Mice were administered a vehicle control or a dose of a peptide daily for nine days. […] The peptide of SEQ ID NO: 9 was administered at doses of 9 and 25 nmol/kg. Cumulative body weight change (grams) was measured each day of the study except on day 3. Results are shown in FIG. 1 and are expressed as mean±SEM.

[2] = test system: DIO mice (strain C57Bl6/NTac); assay: Ambient glucose levels in DIO mice, Example 21; assay type: in vivo; conditions: 9 nmol/kg
Experimental: In addition to cumulative body weight change, ambient glucose levels of the DIO mice (strain C57Bl6/NTac) were measured periodically throughout the study.

[3] = molecular target: T1, human GCGR (Homo sapiens, UniProt P47871); assay: cAMP protocol, cells expressing human GCGR; assay type: cell-based; conditions: ratio of EC50 at human GCGR to EC50 at human GLP1R
T1 construct: expressed in transfected cells; grown under Geneticin and Hygromycin selection
T1 sequence (P47871 26-477): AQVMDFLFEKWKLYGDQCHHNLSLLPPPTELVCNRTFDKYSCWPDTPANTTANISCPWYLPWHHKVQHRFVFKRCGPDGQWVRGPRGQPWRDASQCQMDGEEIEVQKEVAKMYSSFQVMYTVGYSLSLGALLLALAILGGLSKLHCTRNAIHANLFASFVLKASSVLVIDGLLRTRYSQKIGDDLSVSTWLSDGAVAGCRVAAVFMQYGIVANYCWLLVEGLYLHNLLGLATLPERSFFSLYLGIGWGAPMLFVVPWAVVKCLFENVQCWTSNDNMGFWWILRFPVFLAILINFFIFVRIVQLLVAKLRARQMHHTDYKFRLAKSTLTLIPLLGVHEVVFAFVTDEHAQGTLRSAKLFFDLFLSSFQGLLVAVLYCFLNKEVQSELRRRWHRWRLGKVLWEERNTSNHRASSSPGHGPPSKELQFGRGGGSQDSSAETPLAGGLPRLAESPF
Experimental: The cAMP protocol was as follows.
Peptides were dissolved in 100% DMSO and serially diluted to generate 11 point titrations. The peptide solutions were then transferred into 384-well assay plates (150 nL/well). Assay ready frozen cells expressing human GLP-1R or human GCGR were suspended in growth media consisting of DMEM/F12 medium (GIBCO), 10% FBS (GIBCO), lx P/S (GIBCO), 800 μg/mL Geneticin (GIBCO), and 300 μg/mL Hygromycin (Invitrogen). Cells were then diluted in assay buffer consisting of PBS (GIBCO), 7.5% BSA (Perkin Elmer), 100 μM RO 20-1724 (Sigma), and 20% human serum (MP Biomedical). The cell suspensions (15 μL) were then added to the assay plates containing the peptide solutions (30,000 cells/well for human GCGR; 20,000 cells/well for GLP1R). The cells were incubated for 1 hour at room temperature in the dark. Production of cAMP was determined using HitHunter™ cAMPXS kits (DiscoverX). ED buffer (20 μL) was then added to each well and the plates were incubated for 1 hour at room temperature in the dark. Subsequently, EA buffer (20 μL) was added to each well, and the plates were incubated for 1-18 hours at room temperature in the dark. Luminescence was measured using an EnVision Multilabel plate reader (Perkin Elmer). EC50 values were calculated using ADA data analyzer software.

[4] = test system: DIO mice (strain C57Bl6/NTac); assay: Body weight change (%) relative to vehicle in DIO mice, second study, Example 19; assay type: in vivo; conditions: eight days
Experimental: In addition, the peptide of SEQ ID NO: 8 was administered at 15 nmol/kg, while the peptide of SEQ ID NOs: 10 and 11 were administered at 3 nmol/kg. Body weight was measured daily for eight days and body weight change is expressed as percent relative to vehicle (FIG. 2).

[5] = molecular target: human GLP-1 receptor (human, UniProt P43220 24-463); assay: cell-based or functional assay
[6] = molecular target: human glucagon receptor (human, UniProt P47871 26-477); assay: cell-based or functional assay
Sequence of human glucagon receptor (P47871 26-477): as above

| Molecule | weight loss [1] [grams] | decrease in ambient glucose compared to vehicle ([2]; day 9) [mg/dL] | hGCGR/hGLP1R (hTone) [3] | weight loss, percent relative to vehicle ([4]; 9 nmol/kg daily) | weight loss, percent relative to vehicle ([4]; 15 nmol/kg daily) | decrease in ambient glucose compared to vehicle ([2]; day 7 of dosing) [mg/dL] | GLPR1 EC50 (nM) human; cAMP production (HitHunter cAMPXS), 20% human serum [5] [nM] | GCGR EC50 (nM) human; cAMP production (HitHunter cAMPXS), 20% human serum [6] [nM] | hGCGR/hGLP1R (hTone): ratio of cAMP EC50 at human GCGR to cAMP EC50 at human GLP1R [6] [ratio] |
| --- | --- | --- | --- | --- | --- | --- | --- | --- | --- |
| CCCCCCCCCCCCCCCC(=O)N[C@@H](CCC(=O)N[C@@H](CCC(=O)NCCCC[C@H](NC(=O)[C@H](CC(=O)O)NC(=O)[C@H](CO)NC(=O)[C@@H](NC(=O)[C@H](Cc1ccccc1)NC(=O)[C@@H](NC(=O)CNC(=O)[C@H](CCC(N)=O)NC(=O)[C@@H](CO)NC(=O)[C@@H](N)Cc1c[nH]cn1)[C@@H](C)O)[C@@H](C)O)C(=O)N[C@@H](CO)C(=O)N[C@@H](CCCCN)C(=O)N[C@@H](Cc1ccc(O)cc1)C(=O)N[C@@H](CC(C)C)C(=O)N[C@@H](CC(=O)O)C(=O)N[C@H](C(=O)N[C@@H](CCCNC(=N)N)C(=O)N[C@@H](C)C(=O)N[C@@H](C)C(=O)N[C@@H](CCC(N)=O)C(=O)N[C@@H](CC(=O)O)C(=O)N[C@@H](Cc1ccccc1)C(=O)N[C@H](C(=O)N[C@@H](CCC(N)=O)C(=O)N[C@@H](Cc1c[nH]c2ccccc12)C(=O)N[C@@H](CC(C)C)C(=O)N[C@@H](CC(C)C)C(=O)N[C@@H](CC(=O)O)C(=O)N[C@H](C(N)=O)[C@@H](C)O)C(C)C)C(C)C)C(=O)O)C(=O)O [SEQ ID NO: 8] | 8 | -72 | 0.60 | approximately 17% | approximately 25% | – | – | – | – |
| CCCCCCCCCCCCCCCC(=O)N[C@@H](CCC(=O)NCCCC[C@H](NC(=O)[C@H](CC(=O)O)NC(=O)[C@H](CO)NC(=O)[C@@H](NC(=O)[C@H](Cc1ccccc1)NC(=O)[C@@H](NC(=O)CNC(=O)[C@H](CCC(N)=O)NC(=O)[C@@H](CO)NC(=O)[C@@H](N)Cc1c[nH]cn1)[C@@H](C)O)[C@@H](C)O)C(=O)N[C@@H](CO)C(=O)N[C@@H](CCCCN)C(=O)N[C@@H](Cc1ccc(O)cc1)C(=O)N[C@@H](CC(C)C)C(=O)N[C@@H](CC(=O)O)C(=O)N[C@@H](C)C(=O)N[C@@H](CCCNC(=N)N)C(=O)N[C@@H](C)C(=O)N[C@@H](C)C(=O)N[C@@H](CCC(N)=O)C(=O)N[C@@H](CC(=O)O)C(=O)N[C@@H](Cc1ccccc1)C(=O)N[C@H](C(=O)N[C@@H](CCC(N)=O)C(=O)N[C@@H](Cc1c[nH]c2ccccc12)C(=O)N[C@@H](CC(C)C)C(=O)N[C@@H](CC(C)C)C(=O)N[C@@H](CC(=O)O)C(=O)N[C@H](C(N)=O)[C@@H](C)O)C(C)C)C(=O)O [SEQ ID NO: 6] | 10.5 | – | 0.88 | approximately 20% | – | -60 | – | – | – |
| B1 | – | – | – | – | – | – | 0.02 | 0.02 | 0.9 |
| B2 | – | – | – | – | – | – | 0.13 | 0.08 | 0.6 |
| B3 | – | – | – | – | – | – | 0.05 | 0.05 | 0.98 |
| B4 | – | – | – | – | – | – | 0.05 | 0.06 | 1.25 |
| B5 | – | – | – | – | – | – | 0.06 | 0.05 | 0.93 |
| B6 | – | – | – | – | – | – | 0.02 | 0.02 | 1.1 |
| B7 | – | – | – | – | – | – | 0.06 | 0.06 | 0.91 |
